This is an account of results in PMC4837482, “The complex binding mode of the peptide hormone H2 relaxin to its receptor RXFP1” (Nature Communications, 2016).

Where no end group is shown, it is not given here. The star is where a group is joined. DTPA = O=C(O)CN(CCN(CC(=O)O)CC(=O)O)CCN(CC(=O)O)CC(=O)*

For assay [1], the target named is T1, RXFP1 F54A/Y58A (Homo sapiens, UniProt Q9HBX9, F76A/Y80A).
T1 construct: cells expressing full-length RXFP1 and mutants; expressed in transfected cells; host or cells: HEK293T
T1 sequence (Q9HBX9 23-757 F76A/Y80A limits assumed): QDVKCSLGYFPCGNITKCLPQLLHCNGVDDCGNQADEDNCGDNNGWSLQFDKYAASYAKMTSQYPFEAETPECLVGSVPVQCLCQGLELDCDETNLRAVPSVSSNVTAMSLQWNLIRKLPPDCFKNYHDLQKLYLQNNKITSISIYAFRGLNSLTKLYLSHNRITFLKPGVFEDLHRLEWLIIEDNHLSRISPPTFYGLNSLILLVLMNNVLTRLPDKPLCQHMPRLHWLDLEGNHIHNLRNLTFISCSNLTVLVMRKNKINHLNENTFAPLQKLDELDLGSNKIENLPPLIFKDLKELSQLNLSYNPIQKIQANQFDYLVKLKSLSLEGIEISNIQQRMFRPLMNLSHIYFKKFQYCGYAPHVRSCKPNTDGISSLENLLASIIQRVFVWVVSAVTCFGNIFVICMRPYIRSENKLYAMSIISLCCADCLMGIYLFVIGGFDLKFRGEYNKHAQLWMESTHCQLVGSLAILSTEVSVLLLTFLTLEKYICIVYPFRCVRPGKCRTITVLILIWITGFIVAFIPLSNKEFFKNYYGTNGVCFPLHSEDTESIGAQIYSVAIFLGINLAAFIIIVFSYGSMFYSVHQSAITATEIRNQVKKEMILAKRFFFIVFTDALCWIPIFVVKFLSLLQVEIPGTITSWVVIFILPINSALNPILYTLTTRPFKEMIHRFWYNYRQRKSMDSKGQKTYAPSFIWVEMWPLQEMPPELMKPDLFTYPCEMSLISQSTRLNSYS
As to the kind of experiment: Eu-H2 relaxin saturation binding assay, transfected HEK293T cells. To be noted: F54A/Y58A RXFP1 versus wild-type RXFP1.

The target in assay [2] is T2, relaxin family peptide receptor-1 (RXFP1), wild type, full length (human, UniProt Q9HBX9 23-757).
T2 construct: also called wild-type RXFP1; source: HEK293T, transiently transfected, on cells; not shown: FLAG, N-terminal, kept
T2 sequence (looked up): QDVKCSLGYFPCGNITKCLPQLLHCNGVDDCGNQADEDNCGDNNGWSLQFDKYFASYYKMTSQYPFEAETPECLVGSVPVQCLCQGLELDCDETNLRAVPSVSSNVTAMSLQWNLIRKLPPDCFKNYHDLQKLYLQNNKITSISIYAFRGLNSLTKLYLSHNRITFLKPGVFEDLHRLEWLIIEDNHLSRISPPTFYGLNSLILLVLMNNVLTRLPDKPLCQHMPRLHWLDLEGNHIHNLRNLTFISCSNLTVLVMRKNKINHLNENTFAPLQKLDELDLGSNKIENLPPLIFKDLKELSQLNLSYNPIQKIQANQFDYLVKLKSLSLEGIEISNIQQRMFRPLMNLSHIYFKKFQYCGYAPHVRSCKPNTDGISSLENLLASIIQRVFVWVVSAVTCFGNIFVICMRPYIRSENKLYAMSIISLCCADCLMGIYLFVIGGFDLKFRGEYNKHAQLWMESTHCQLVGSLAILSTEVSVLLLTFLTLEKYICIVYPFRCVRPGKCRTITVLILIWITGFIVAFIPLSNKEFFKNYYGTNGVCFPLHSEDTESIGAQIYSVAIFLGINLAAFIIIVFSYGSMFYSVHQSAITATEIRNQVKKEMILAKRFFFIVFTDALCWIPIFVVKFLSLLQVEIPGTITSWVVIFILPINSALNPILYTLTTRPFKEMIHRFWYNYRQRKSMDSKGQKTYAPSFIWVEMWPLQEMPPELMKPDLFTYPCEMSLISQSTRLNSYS
Kind of assay: europium-labelled ligand saturation binding on cells (time-resolved fluorescence); HEK293T cells transiently transfected with receptor, 96-well plates; increasing Eu-H2 relaxin (maximum 15 nM) with or without 1 μM unlabelled H2 relaxin, 1 h, room temperature; 20 mM HEPES pH 7.5, 1.5 mM CaCl2, 50 mM NaCl, 0.01% NaN3, 1% BSA; one-site fit. To be noted: one partner purified.

Assay [3] concerns the target T3, RXFP1 G41A/D42A, full length (human).
T3 chain: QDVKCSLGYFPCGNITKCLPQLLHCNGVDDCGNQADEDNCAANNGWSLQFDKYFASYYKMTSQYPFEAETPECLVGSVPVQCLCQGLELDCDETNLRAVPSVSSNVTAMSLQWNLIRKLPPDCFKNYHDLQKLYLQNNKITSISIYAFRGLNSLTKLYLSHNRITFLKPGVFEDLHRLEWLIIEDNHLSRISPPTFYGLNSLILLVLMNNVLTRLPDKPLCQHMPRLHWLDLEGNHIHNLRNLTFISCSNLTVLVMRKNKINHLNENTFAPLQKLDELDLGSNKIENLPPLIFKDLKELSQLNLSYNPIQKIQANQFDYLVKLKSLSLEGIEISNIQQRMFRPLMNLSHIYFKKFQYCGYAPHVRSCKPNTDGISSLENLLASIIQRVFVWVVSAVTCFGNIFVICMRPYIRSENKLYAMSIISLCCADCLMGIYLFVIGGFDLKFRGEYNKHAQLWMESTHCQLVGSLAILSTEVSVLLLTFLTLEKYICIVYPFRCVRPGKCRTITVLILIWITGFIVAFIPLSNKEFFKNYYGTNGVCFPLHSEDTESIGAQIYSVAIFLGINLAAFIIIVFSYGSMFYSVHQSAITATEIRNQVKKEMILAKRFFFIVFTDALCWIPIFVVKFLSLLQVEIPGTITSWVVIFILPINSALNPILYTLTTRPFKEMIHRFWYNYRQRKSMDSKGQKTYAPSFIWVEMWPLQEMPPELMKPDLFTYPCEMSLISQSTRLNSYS
As to the kind of experiment: cell-based or functional assay.

Take “H2 relaxin: two-chain 6-kDa peptide hormone structurally related to insulin; recombinant human gene-2 H2 relaxin provided by Corthera”: the “loss in H2 relaxin binding” value in assay [1] is reported as “tenfold”.

B1: Europium-labelled H2 relaxin (ligand, human)
chain 1: {DTPA}-QLYSALANKCCHVGCTKRSLARFC
chain 2: DSWMEEVIKLCGRELVRAQIAICGMSTWS
modifications: not fully specified; ends and bridges not checked; also: DTPA cage loaded with Eu^3+
notes: A chain of human gene-2 (H2) relaxin; numbers count on: the A chain; B chain of human gene-2 (H2) relaxin; numbers count on: the B chain; also called Eu-H2 relaxin; Eu-H2
B1 yielded a Kd in assay [2] of 0.57 nM.

B2: H2 relaxin (ligand, human)
chain 1: QLYSALANKCCHVGCTKRSLARFC
chain 2: DSWMEEVIKLCGRELVRAQIAICGMSTWS
On to B2, for which the “H2 relaxin-induced cAMP response (pCRE β-galactosidase reporter, HEK293T), pEC50” value in assay [3] worked out at 7.26 pEC50.

Usually Kd stands for a measure of binding affinity in units of concentration. A higher Kd goes with weaker binding.
